Laboratory results as given in patent publication US20150111836A1, “CELLULAR APOBEC3 PROTEINS AND MODULATORS THEREOF FOR REGULATING DNA REPAIR PROCESSES AND TREATING PROLIFERATIVE DISEASES” (priority 2012, published 2015).

Columns and labels:
[1] = target: T1, purified recombinant A3G-His6 (human APOBEC3G with C-terminal Myc-His6 tag, expressed in 293T cells) (human), Q9HC16
[2] = target: T1, purified recombinant A3G-His6 (human …); assay: cell-based or functional assay

T1 sequence (Q9HC16 whole entry): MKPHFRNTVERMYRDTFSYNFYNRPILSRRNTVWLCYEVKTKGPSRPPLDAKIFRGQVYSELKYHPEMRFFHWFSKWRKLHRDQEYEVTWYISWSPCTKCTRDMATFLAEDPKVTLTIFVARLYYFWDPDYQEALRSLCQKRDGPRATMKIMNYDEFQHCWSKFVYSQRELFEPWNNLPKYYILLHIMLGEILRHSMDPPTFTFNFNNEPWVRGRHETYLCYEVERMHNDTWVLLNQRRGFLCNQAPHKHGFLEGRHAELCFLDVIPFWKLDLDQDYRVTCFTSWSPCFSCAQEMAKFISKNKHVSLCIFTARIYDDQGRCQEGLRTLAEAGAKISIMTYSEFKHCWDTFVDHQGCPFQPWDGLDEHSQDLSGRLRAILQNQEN

Row | Binder | K'I [1] [nM] | IC50 of inhibition of A3G deaminase activity [2] [nM] | IC50 of inhibition of deaminase activity of purified A3G (experimental repeat) [2] [nM] | inhibition of A3G deaminase activity [2] [µM] | Ki [1] [nM]
1 | VKHHMYISGKAKGWF (modifications not checked) [Vif25-39 peptide] | 250 | 600 | 1000 | 1 | –
2 | QLIHLYYFDCFSESA (modifications not checked) [Vif105-119 peptide] | 92 | 100 | – | 1 | 68
